Results published in the supplement of paper PMC11865577.

These sequences were tested on TO-N3-2 (biotin conjugate) (assay: pull-down binding Z-score (relative to library population); higher = stronger binding). Conditions: RNA library: Library-2.
In short: (§1)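 Cy5- or Cy3-end-labelled RNA library (1 μg) was heat-folded in phosphate/NaCl/KCl buffer and incubated 60 min at 25 °C with streptavidin beads carrying 100 pmol biotin-conjugated small molecule. After three washes, bound RNA was eluted in hot SDS and hybridised 20 h at 55.5 °C to a DNA barcode microarray. Binding was scored by subtracting a beads-only control, averaging barcoded replicate probes after dropping highest and lowest, and converting to a Z-score against library mean and standard deviation.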

Sequence | pull-down binding Z-score
UUCGCAUUAUUUAAUGAUGCCCA [hsa-mir-323b] | -0.486
UUCGCGGUUGGGCU [hsa-mir-3143] | 0.693
UUCUAAUGCCAAGAA [hsa-mir-1279] | -0.306
UUCUAGUCCCUAUUAGACUAGAA [hsa-mir-5681a] | -1.08
UUCUCCUUGGGAAAAACAGAGAA [hsa-mir-605] | -0.414
UUCUCGAGUCUAUGGCUCCGGCCGAGAG [hsa-mir-219a-1] | 1.1
UUCUCGGUUGGCCGCAGACUCGUACAAGAA [hsa-mir-219b] | 0.724
UUCUCUUUAUUUAUGAUGAA [hsa-mir-494] | -1.8
UUCUGCUGAAGACUGGUCUCUUCAUGUGUGAG [hsa-mir-6133] | 0.00769
UUCUGCUGUGCCUUACAGCAGUAGAA [hsa-mir-3179-4_3179-1_3179-3_3179-2] | -0.695
UUCUGUGGUUUGAAAGGAA [hsa-mir-1323] | -0.252
UUCUGUUGUCAGAAAGAAGAGAA [hsa-mir-1283-1] | -0.0355
UUCUGUUGUCUGAAAGAAAAGAA [hsa-mir-1283-2] | -0.382
UUCUGUUGUCUGAAAGAAACCAA [hsa-mir-518d] | 0.126
UUCUUCCUGGAGUCGGGGAAAAG [hsa-mir-320e] | 0.278
UUCUUGUACGAGUCUGCGGCCAACCGAGAA [hsa-mir-219a-2] | 0.974
UUCUUUGAGGAUCUGGCCUAAAGAG [hsa-mir-202] | 0.811
UUCUUUUUUCUGAAAUUCUUCAGGAAGGA [hsa-mir-3167] | -0.017
UUGAACUUCAUUUCUCAUGCUCA [hsa-mir-6870] | 0.145
UUGAAUCACACACACAUUUCAA [hsa-mir-4803] | -0.644
UUGACCAAUCAUCUUAUUGACUAGA [hsa-mir-6502] | -0.496
UUGAGAACCAG [hsa-mir-4328] | 1.04
UUGAGAAGUAAUUGA [hsa-mir-548ak] | -0.239
UUGAGCAUCUUCUGGGCAGCUGA [hsa-mir-7854] | 0.833
UUGAGGAGAGCACCACAGUGGUCAUCACACAG [hsa-mir-622] | 1.19
UUGAGGGACAUGGUUAAUGGAAUUGUCUCA [hsa-mir-342] | 0.641

Sequence | pull-down binding Z-score
UUGAUGUCAGAAUGAGGUGUACCAA [hsa-mir-4714] | -0.099
UUGAUGUCAGGUUAUCCCCAAGCAUAACCUCAC [hsa-mir-4639] | -0.0627
UUGAUUCAGUAAAACAUUCAA [hsa-mir-891b] | -0.902
UUGCCCAA [hsa-mir-548bb] | -0.332
UUGCUCACGGUAAGAAAAACAUGAGUAA [hsa-mir-8062] | -0.388
UUGCUCUUUGGUGGAGAUA [hsa-mir-6074] | 0.241
UUGCUUAAG [hsa-mir-924] | -0.696
UUGGCACAGGGAAGCGAGUCUGCCAA [hsa-mir-195] | 1.23
UUGGCCUUUAUUUUCAAUGGCAAG [hsa-mir-548b] | 0.0975
UUGGCGUAGUGAAAUAUAUAUUAAACACCAA [hsa-mir-16-2] | 0.0267
UUGGCGUUAAGAUUCUAAAAUUAUCUCCAG [hsa-mir-16-1] | -0.642
UUGGGAUCCACCUUUCUCUCGA [hsa-mir-196b] | -0.031
UUGGGGAGGAGCUAAGAAGCCCCUACAGGGCCCAG [hsa-mir-4257] | 1.05
UUGGUCCGUAUGUGUGGUGCCACCGG [hsa-mir-1908] | 0.948
UUGGUCUUUCCCCUGUGGUCCCAA [hsa-mir-2909] | 0.207
UUGGUGACAGCAGCAGUAGAGUUGCCAG [hsa-mir-6501] | 0.272
UUGGUGUGUAUUGCCUUGUCAA [hsa-mir-1179] | -0.0369
UUGUAAUAGUGUAGAAUGUUGGUUAAC [hsa-mir-591] | 0.44
UUGUCGUUAAAAAUAGCAA [hsa-mir-548n] | -0.863
UUGUCUCCUCAAGUUGCGACGAGACAG [hsa-mir-4645] | -0.585
UUGUGAAACACAGGUGUUUUUUAACCUCAC [hsa-mir-6841] | 0.257
UUGUGAUGUUUACCGUUUAAAUCCACGG [hsa-mir-125b-1] | 0.078
UUGUGGCAAUACAG [hsa-mir-8068] | -0.0186
UUGUGGCUUUGGGUGGAUAUUAAUCAGCCACAG [hsa-mir-383] | 0.0594
UUGUGUAUGUACUUAGCUGUACUAUA [hsa-mir-1244-1_1244-4_1244-2_1244-3] | -0.486
UUGUGUCCAUCAUGCAACAA [hsa-mir-802] | 0.396

Sequence | pull-down binding Z-score
UUGUGUGGUAUCCGUAUAGUCACAG [hsa-mir-10b] | -0.0857
UUGUUACAUUUUAGGAUUGCUUGCCCCUUGCUCCAAUGGUGCAGGCAGAAGAAAUGCAAACAA [hsa-mir-3973] | 1.25
UUGUUCGUUGCAUUUUUAGGAACAA [hsa-mir-3613] | -1.23
UUGUUCUGAUGUACUACGACAA [hsa-mir-7-3] | -0.186
UUGUUGUUAUUACU [hsa-mir-378d-1] | -0.877
UUUAAGACACCCUGUACCUUAAA [hsa-mir-3121] | -0.346
UUUACAUAUAAAUUUCUAUUUGU [hsa-mir-4503] | -0.557
UUUACAUGCUACAGUCAAGAUGCGAA [hsa-mir-15b] | -0.147
UUUACCAUUACUUUCAAUGGCAAA [hsa-mir-548a-3] | -1.82
UUUACUUUUGGCCUCAAGUCAUUGCAGUAAA [hsa-mir-4796] | -1.18
UUUAGAAAAGAGAAUUCCAAA [hsa-mir-1252] | -0.676
UUUAGAUUUAAAUAGUGAUUGUCUAG [hsa-mir-29b-1] | -0.27
UUUAGUAUGCCACAUUUCUAAA [hsa-mir-4282] | -0.699
UUUAUGCCUGUUAGCAUGAAAAAAGAGGCUGAGAA [hsa-mir-7515] | 0.0418
UUUCAGAUAACUCGGGA [hsa-mir-4320] | 0.00433
UUUCCCAUUAUUUUAAUUGCGAA [hsa-mir-570] | -1.16
UUUCUAUAACUGGAUGAAA [hsa-mir-498] | -0.778
UUUCUCUUAUGUGAAAAAAAAGAAG [hsa-mir-525] | -0.745
UUUCUCUUGUCCAAAGGAAAAGAAG [hsa-mir-524] | -0.747
UUUCUCUUGUCUAAAAGAAAAGAAA [hsa-mir-518f] | -0.969
UUUCUGAAUUUGUGAGA [hsa-mir-4463] | -0.751
UUUCUGUUGUCUAAAAGAAAAGAAA [hsa-mir-527] | -0.575
UUUCUGUUGUCUAAAAGAAGAGAAA [hsa-mir-518a-2] | -0.273
UUUCUGUUGUCUGAAAGAAAAGAAC [hsa-mir-523] | 0.513

The sequences below were run on G-clamp-N3 (biotin conjugate) in the same assay as above. Conditions: RNA library: Library-1 (pre-miRNA loops + repeats).
In short: as §1

Sequence | pull-down binding Z-score
UUCGCAUUAUUUAAUGAUGCCCA [hsa-mir-323b] | -0.751
UUCGCGGUUGGGCU [hsa-mir-3143] | 0.897
UUCUAAUGCCAAGAA [hsa-mir-1279] | -0.241
UUCUAGUCCCUAUUAGACUAGAA [hsa-mir-5681a] | -0.692
UUCUCCUUGGGAAAAACAGAGAA [hsa-mir-605] | -0.311
UUCUCGAGUCUAUGGCUCCGGCCGAGAG [hsa-mir-219a-1] | -0.199
UUCUCGGUUGGCCGCAGACUCGUACAAGAA [hsa-mir-219b] | 0.895
UUCUCUUUAUUUAUGAUGAA [hsa-mir-494] | -1.25
UUCUGCUGAAGACUGGUCUCUUCAUGUGUGAG [hsa-mir-6133] | -0.872
UUCUGCUGUGCCUUACAGCAGUAGAA [hsa-mir-3179-4_3179-1_3179-3_3179-2] | 0.67
UUCUGUGGUUUGAAAGGAA [hsa-mir-1323] | 1.07
UUCUGUUGUCAGAAAGAAGAGAA [hsa-mir-1283-1] | 0.462
UUCUGUUGUCUGAAAGAAAAGAA [hsa-mir-1283-2] | 0.164
UUCUGUUGUCUGAAAGAAACCAA [hsa-mir-518d] | -1.34
UUCUUCCUGGAGUCGGGGAAAAG [hsa-mir-320e] | 1.31
UUCUUGUACGAGUCUGCGGCCAACCGAGAA [hsa-mir-219a-2] | -0.0874
UUCUUUGAGGAUCUGGCCUAAAGAG [hsa-mir-202] | -0.443
UUCUUUUUUCUGAAAUUCUUCAGGAAGGA [hsa-mir-3167] | -0.0544
UUGAACUUCAUUUCUCAUGCUCA [hsa-mir-6870] | -1.6
